B1: PKD2L1 (parent)
chain: YSGGGYYLDLPGSRQGSAEALRAL
B2: SLC2A12 (parent)
chain: CLLGLGSLVLILSLSYTVLIVGRI

Variants of: B1
Experiment: protein stability index of a GFP-peptide fusion (GPS, HEK-293T) (PSI 1-6); higher = more stable
Details: c terminus: a fixed tail appended
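Note: lentivirally expressed fusions sorted by FACS into six bins by GFP to DsRed ratio, PSI derived from sequencing read proportions per bin multiplied by bin number.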

Protein stability index of substitutions, site by site:
R22: D 1.26; A 2.13; Y 2.02; L 1.36; P 1.78; T 1.82; S 2.92; Q 1.5; H 1.92; W 3.79; G 1.69; M 2.61; I 3.18; N 1.65; F 2.84; C 2.11; K 2.08; V 2.03; E 1.86
E19: T 1.77; R 2.16; Y 2.23; W 1.74; V 1.89; P 2.03; Q 1.63; S 1.49
A23: W 2.22; R 2.26; E 1.95; I 1.66; Q 2.53; C 1.59; N 2.05; H 2.09; M 2.03; S 1.86; Y 1.53; G 1.44; L 1.73; K 1.72; V 2.45; T 2.24; P 2.19; F 2.52; D 2.21
L24: F 1.99; P 2.7; D 1.6; K 2.91; W 1.62; Y 2.12; H 2.65; A 1.85; M 1.63; G 2.63; V 2.33; S 2.41; I 1.63; E 1.49; R 2.34; C 1.62; Q 1.17; N 2.1; T 1.61
A20: H 1.25; N 2.02; S 2.2; K 1.74; G 1.66; F 2.64; I 1.37; Y 1.76; P 2.62; D 1.86; M 1.81; C 3.77; R 1.29; V 1.6; Q 1.66; W 2.36; L 1.72; T 2.65
L21: E 1.36; K 2.26; S 2.27; G 1.89; N 1.99; Q 1.87; P 2.23; F 2.09; I 1.75; H 2.05; Y 1.91; V 1.8; C 1.41; W 1.29; R 1.25; D 1.98; M 3.01; A 1.46; T 1.86

Variants of: B2
Experiment: as above
Details: c terminus: a fixed tail appended

Protein stability index, by site and new letter:
L8: D 4.51; P 2.7; H 2.87; I 3
V9: N 1.9; T 2.25; D 3.2; Y 2.23; H 2.07; S 3.94; F 3.79; K 1.27
L3: N 2.92; K 2.17; T 1.32; R 2.62; E 2.54
G4: F 3.56; L 4.03; C 2.73; Y 4.5; D 3.12
C1: M 2.46; W 1.27; R 2.88; K 1.68; L 2.46; I 1.83; N 2.15
G6: I 2.69; F 2.27; C 4.32; Y 3.29; H 2.78; A 2.43; T 2.06; D 3.1; E 3.33
L2: H 3.48; K 1.76; M 2.96; C 2.93; Q 1.55
L10: T 3.09; K 2.9; N 2.3; S 2.96; C 3.02
S7: T 2.51; N 2.72; H 1.81; K 2.01; A 3.86; P 2.76; I 2.45; R 1.8
L5: W 2.12; R 2.84; H 2.6; I 3.48; Y 3.19; Q 2.45; G 3.97; E 2.46; M 3.94

Reference: the supplement of paper PMC10567573
